Results published in the supplement of paper PMC12042874.
± gives the uncertainty stated by the source.

Assay: amyloid nucleation score (Sup35N fusion, yeast selection) (log enrichment); library NNK3; higher = more nucleation; inactive = no reads after selection
Method in brief: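 Three technical output replicates were used for random libraries. Psi-negative yeast expressing peptides of 20 random codons fused to Sup35N were induced with 100 μM copper sulfate for 24 hours and grown 7 days at 30°C on medium lacking adenine and uracil, and input and output plasmid inserts were Illumina-sequenced, excluding sequences with under 100 input reads. The nucleation score is the DiMSum log enrichment of output over input reads, centred on the mode score of non-aggregating sequences.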
For SSDCMDDRCCDNCDSSRLLW, the amyloid nucleation score was “inactive”.
SSYLNYIFSMTLECIYGC gave an amyloid nucleation score of -0.272 ± 0.47.
In the case of TNGKEWWNCVYGERTVNAFA, the amyloid nucleation score is reported as “inactive”.
For FFYYLRSVLHSSYLFRRDVI, the amyloid nucleation score was “inactive”.
TASWVLFVAVVCICLTLFSY gave an amyloid nucleation score of 0.85 ± 0.3.
With FGSSMYRMKPVDC the amyloid nucleation score was “inactive”.
Work on DGFIWAQGLTLIFMRSNMKR yielded an amyloid nucleation score of 2.42 ± 0.055.
In the case of NVFLSRFMVMRKMVWFTEF, the amyloid nucleation score is reported as “inactive”.
With FVLVHSFLECHYIHVTTERL the amyloid nucleation score was “inactive”.
CRRFELS gave an amyloid nucleation score of -1.04 ± 1.9.
With CYQPRYLSWLKVRDCEDGVY the amyloid nucleation score was “inactive”.
Substance SLILALFSGISSDF has an amyloid nucleation score of 0.122 ± 0.37.
With RFISEYCMFENKEMVEPSFG the amyloid nucleation score was “inactive”.
For FRVKFIMCRHLSPNV, the amyloid nucleation score was 0.682 ± 0.2.
For WQCGNVLLSYAQYNAVLVAW, the amyloid nucleation score was “inactive”.
With KCCEQRAIIPFVGRTRSHAT the amyloid nucleation score was “inactive”.
Work on RSAVISTLRYSW yielded an amyloid nucleation score of -0.289 ± 0.41.
FKTCPKCSSSCCIFICPCSV gave an amyloid nucleation score of 0.753 ± 0.25.
For ANKYASRFVYSISDLSWTIW, the amyloid nucleation score was “inactive”.
In the case of FSYAFWVKIIIVFRRFITRK, the amyloid nucleation score is reported as “inactive”.
In the case of CLMVKHYFFVSSWRFNVFGI, the amyloid nucleation score is reported as “inactive”.
Substance YMDPWYVIDHCLWRQMFLSE has an amyloid nucleation score of -0.557 ± 1.
For WLKAEGWIIILSSATRPG, the amyloid nucleation score was “inactive”.
For FPGCSRENLTVGLSVTRTEG, the amyloid nucleation score was “inactive”.
In the case of FLLVLWSVFLTGT, the amyloid nucleation score is reported as “inactive”.
With SDEFGDHEGCMLAFRASAVW the amyloid nucleation score was “inactive”.
For TLSLACGSYVQCSMEFLSSG, the amyloid nucleation score was 1.6 ± 0.08.
In the case of ICAVFWDCMISRSCDTALYS, the amyloid nucleation score is reported as “inactive”.
QPDFLSWVDACVNKVVYWVK showed an amyloid nucleation score of -0.421 ± 0.98.
With CKNLWRVLGISPTRSSSMRV the amyloid nucleation score was “inactive”.
For IHRNEYMMRKKDRILQNLAV, the amyloid nucleation score was “inactive”.
For NDKYWTIHMTSLGQRLIFAE, the amyloid nucleation score was 1.25 ± 0.15.
For VFECLTFF, the amyloid nucleation score was -0.872 ± 1.
In the case of SFFTWYTSFSKDDLWSGLTV, the amyloid nucleation score is reported as “inactive”.
With KYFTLDMNRKSISYL the amyloid nucleation score was “inactive”.
In the case of IYVARSGARGRGSWSLCKIC, the amyloid nucleation score is reported as 0.629 ± 0.28.
In the case of MLDYVF, the amyloid nucleation score is reported as “inactive”.
In the case of AALHKRTAAQNVPKELGLTM, the amyloid nucleation score is reported as 0.227 ± 0.63.
ACLCNNCLSLNPTWSCFLCL gave an amyloid nucleation score of 2.41 ± 0.087.
With LVFTWYFMCNVMGIFDRGTR the amyloid nucleation score was 2.06 ± 0.094.
In the case of LCSFPKH, the amyloid nucleation score is reported as “inactive”.
In the case of GCERMFIMVYSL, the amyloid nucleation score is reported as “inactive”.
For GLPLEWDDSWNVKIVLLCWS, the amyloid nucleation score was “inactive”.
In the case of DTRFWTARLLYFFI, the amyloid nucleation score is reported as “inactive”.
In the case of RSTAPGTGSDIPFEDSLRQM, the amyloid nucleation score is reported as “inactive”.
For NWFSSQS, the amyloid nucleation score was “inactive”.
In the case of FALMFLSWYNRKSVSRPCTE, the amyloid nucleation score is reported as “inactive”.
With KRLSCNFRSRSKSSGWPTLV the amyloid nucleation score was “inactive”.
With RDRLVWDRCRTVAPSTGVVR the amyloid nucleation score was “inactive”.
In the case of RKYTKCSFRKKSWCPSPFEL, the amyloid nucleation score is reported as “inactive”.
In the case of KEWVMRLSVGYIDSFHRFAW, the amyloid nucleation score is reported as “inactive”.
In the case of RYCVS, the amyloid nucleation score is reported as “inactive”.
In the case of SMQKGGK, the amyloid nucleation score is reported as “inactive”.
For WFSPRDVNYSREVFKANTLT, the amyloid nucleation score was “inactive”.
Substance VWNFFSMGSFSVDC has an amyloid nucleation score of 1.28 ± 0.087.
For LMIEGLSDIHVLMAVSPERG, the amyloid nucleation score was “inactive”.
In the case of FFENWKLGDFAYRRIGTLLK, the amyloid nucleation score is reported as -0.515 ± 0.66.
With SRCPMADCMRKPRGGCSVGR the amyloid nucleation score was “inactive”.
With SSGLICF the amyloid nucleation score was “inactive”.
For SGLLSAVLDAAS, the amyloid nucleation score was “inactive”.
In the case of SAVYMVSGIGNNSHTSAFIR, the amyloid nucleation score is reported as 0.614 ± 0.17.
For WVWMTETVLWFRYKQVACGW, the amyloid nucleation score was “inactive”.
In the case of GRFASYMYCILQQHSLFYWV, the amyloid nucleation score is reported as “inactive”.
In the case of SIGQHWLGS, the amyloid nucleation score is reported as “inactive”.
For VEAEHYSRRNEKVFRSNMKW, the amyloid nucleation score was “inactive”.
With ISALKQSS the amyloid nucleation score was “inactive”.
With VYWFRYRSIGTAAS the amyloid nucleation score was “inactive”.
For VRMRDFKENARRMVP, the amyloid nucleation score was “inactive”.
In the case of SIKLGILEMCKA, the amyloid nucleation score is reported as “inactive”.
In the case of YCVFGRNCDNKAVVLIGGNP, the amyloid nucleation score is reported as “inactive”.
CLVNNLCVLR gave an amyloid nucleation score of 0.047 ± 0.55.
With NTSAPSNATAAFKAITN the amyloid nucleation score was “inactive”.
In the case of GISMRRNFSLNKCCSAQSLF, the amyloid nucleation score is reported as “inactive”.
In the case of DLTSIVWSRAYVVSY, the amyloid nucleation score is reported as “inactive”.
Substance KSKNPIIVFTYRM has an amyloid nucleation score of 1.2 ± 0.14.
For TGSDAYSMRMPRQPPISFVV, the amyloid nucleation score was “inactive”.
In the case of FPDTALLGCNCLFCLEGDGL, the amyloid nucleation score is reported as “inactive”.
In the case of GAYSDMTNKIWVPDNLLLL, the amyloid nucleation score is reported as “inactive”.
With FANSY the amyloid nucleation score was “inactive”.
For VVFWNFTRMLCLG, the amyloid nucleation score was “inactive”.
With PRNRSVGKMLTRINNSFSRA the amyloid nucleation score was “inactive”.
With NGTALLKVTLAQYVGIVTLF the amyloid nucleation score was “inactive”.
In the case of ASPTQVNYFTLVKCMVLRTT, the amyloid nucleation score is reported as “inactive”.
In the case of SSSRCITLLVSIMVPISATC, the amyloid nucleation score is reported as “inactive”.
For SWFWVHHEFVFKALGTLIRT, the amyloid nucleation score was “inactive”.
In the case of GEWSNLSNCTVNNVSRSGCS, the amyloid nucleation score is reported as “inactive”.
With RGFLVRWAPFCLGFGSTLND the amyloid nucleation score was “inactive”.
For FCFKSLALELPIQKY, the amyloid nucleation score was “inactive”.
For VRLSKHMLVIDRGLKQLVIY, the amyloid nucleation score was “inactive”.
Substance NVWLNGWIVGMGYNNWHILW has an amyloid nucleation score of 1.93 ± 0.072.
In the case of MCNMCR, the amyloid nucleation score is reported as “inactive”.
In the case of LQSFPYQYIITR, the amyloid nucleation score is reported as “inactive”.
For DSSKFLLTCHLWCG, the amyloid nucleation score was “inactive”.
With IGFFEFIKELITWKILS the amyloid nucleation score was “inactive”.
For CSLQWFMV, the amyloid nucleation score was “inactive”.
For TRNMIMRRKSTLRHLVTEAD, the amyloid nucleation score was “inactive”.
In the case of VCTKWGQYFCPYPVLCGWVR, the amyloid nucleation score is reported as “inactive”.
In the case of WSWRDLEGQNSGKEAVILEL, the amyloid nucleation score is reported as “inactive”.
For FYIYP, the amyloid nucleation score was “inactive”.
With SSAYHSHDSSRTKRNRSGRM the amyloid nucleation score was “inactive”.
For LLVSQLRYYWTATRNKFIF, the amyloid nucleation score was “inactive”.
For VLLTVECLFYSS, the amyloid nucleation score was “inactive”.
In the case of SAFTFPTLWIFTNPTVHLLF, the amyloid nucleation score is reported as “inactive”.
With YQRVHTSCHHELSIHGSSCT the amyloid nucleation score was “inactive”.
In the case of NRWIRLLNAISWGYLRMLMV, the amyloid nucleation score is reported as “inactive”.
With VCNSYCMPRPRILQSQGGMG the amyloid nucleation score was “inactive”.
With RRYIRSVNCKQWDYKFLMYS the amyloid nucleation score was “inactive”.
For LVLMSEGFM, the amyloid nucleation score was “inactive”.
In the case of FIEKAC, the amyloid nucleation score is reported as “inactive”.
With NPVLWVGRAF the amyloid nucleation score was “inactive”.
For TTRRSTYGFEIKYILIVFVH, the amyloid nucleation score was “inactive”.
For LVNCISIVLFPECNKSLLHR, the amyloid nucleation score was 2.35 ± 0.077.
For LPCWKFGLASHR, the amyloid nucleation score was “inactive”.
In the case of ESVRGRLFRV, the amyloid nucleation score is reported as “inactive”.
IQANSLLSRLLRLSGNCCWM showed an amyloid nucleation score of 0.127 ± 0.8.
In the case of YPCERYHRPHDQQNVDLTNL, the amyloid nucleation score is reported as “inactive”.
With SGCDLLFFYYHRRTVPLANW the amyloid nucleation score was “inactive”.
With TIIRLIFIWAFFGSGICGRV the amyloid nucleation score was “inactive”.
With YWSIFTLVVPMRFAFIWS the amyloid nucleation score was “inactive”.
With VGNSHASIHPCKVICSLACD the amyloid nucleation score was “inactive”.
In the case of VLGSRVKGDYCRCLEMECIW, the amyloid nucleation score is reported as “inactive”.
With GGEGLVRQA the amyloid nucleation score was “inactive”.
For LPRLYDFLGLVWVIA, the amyloid nucleation score was “inactive”.
For HDVFSNYLITVQTFLWLSGV, the amyloid nucleation score was “inactive”.
In the case of ILRHKCDEQPVRVSGHCFA, the amyloid nucleation score is reported as “inactive”.
In the case of LLEIPNSRDGFHRGSTVGDL, the amyloid nucleation score is reported as “inactive”.
For TFLNRIQWSKWILN, the amyloid nucleation score was “inactive”.
For RSPRFLRELVLGCSNCWFCG, the amyloid nucleation score was “inactive”.
With NKFMIGVRMASGTL the amyloid nucleation score was “inactive”.
With AALVGLRCIAWNYCDTRKRI the amyloid nucleation score was “inactive”.
With RIVGRLVSRALWWV the amyloid nucleation score was “inactive”.
For CVEIVGMESASCVVMNPLVC, the amyloid nucleation score was “inactive”.
In the case of FYLKLMSLVMSMDIMLTSLC, the amyloid nucleation score is reported as “inactive”.
In the case of GLTFCATRCRDWLEGWQY, the amyloid nucleation score is reported as “inactive”.
In the case of APKVQGDCRNTGCAPMVHKK, the amyloid nucleation score is reported as “inactive”.
For SMCMRCLSVSKKKAQKSDEP, the amyloid nucleation score was “inactive”.
In the case of LPEMGFFSLVDNWLAVAFSK, the amyloid nucleation score is reported as 1.46 ± 0.081.
With ELTEDLVDL the amyloid nucleation score was “inactive”.
With WYNNYFRQVPSCVKDGRSHP the amyloid nucleation score was “inactive”.
With LSHAG the amyloid nucleation score was “inactive”.
For CVFLKKPEKMQLLASSFNS, the amyloid nucleation score was “inactive”.
In the case of FWTSLPFVGHNNISCRLPTP, the amyloid nucleation score is reported as “inactive”.
In the case of KLSSFSSLQIYTWYMILG, the amyloid nucleation score is reported as “inactive”.
In the case of YEWKTRGW, the amyloid nucleation score is reported as “inactive”.
KLYWNHAQYPNTTVSTVKFS showed an amyloid nucleation score of -0.706 ± 1.4.
With HGFLFCGFSNYKCVQGNMTF the amyloid nucleation score was “inactive”.
GFPPCSTRTIQLTWHSSNV showed an amyloid nucleation score of 0.37 ± 0.17.
For YLCYMEYVH, the amyloid nucleation score was “inactive”.
With VYAKVMSCGYGQRCVMEWFE the amyloid nucleation score was “inactive”.
For SCSIVDWSLMIVTYLCWLTN, the amyloid nucleation score was “inactive”.
With FYFDARRSITLSNSNVVKLW the amyloid nucleation score was 1.93 ± 0.08.
With VLFINACYPLIISYQ the amyloid nucleation score was 1.97 ± 0.066.
In the case of LNQGSYYGMARFPL, the amyloid nucleation score is reported as “inactive”.
With WDFRV the amyloid nucleation score was “inactive”.
With ITDLYF the amyloid nucleation score was “inactive”.
RLSYQYFCQAMRMEGEFWSY showed an amyloid nucleation score of -0.16 ± 0.33.
In the case of VGNLGS, the amyloid nucleation score is reported as “inactive”.
In the case of LVLPVSFRVCFREVIIHMKY, the amyloid nucleation score is reported as “inactive”.
